Square brackets hold non-standard residues; d marks the D form. Ends that are not written are not given here. pT = C[C@@H](OP(=O)(O)O)[C@H](N)C(=O)O; pS = N[C@@H](COP(=O)(O)O)C(=O)O
Biological target: T1, human Mad1^CTD (human, UniProt Q9Y6D9 597-718)
T1 chain: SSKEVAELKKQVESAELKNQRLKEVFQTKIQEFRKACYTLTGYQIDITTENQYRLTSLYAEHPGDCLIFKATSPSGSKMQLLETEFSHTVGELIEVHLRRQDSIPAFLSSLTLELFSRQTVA
Assay: ITC

Binder	Kd [µM]
CKVQPSP[pT]VHTKEALGFIMNMFQA [human Bub1 CM phospho-peptide pT461]	15.7
CKVQP[pS]P[pT]VHTKEALGFIMNMFQA [human Bub1 CM phospho-peptide pS459-pT461]	3.1
